Assay results as given in article PMC3746069 (FEBS letters, 2013).
One block for each binder: values may come before it.

B2: Outer arm dynein intermediate chain 2 with C-terminal 6xHis (IC2-6xHis) (natural protein, Chlamydomonas reinhardtii, UniProt P27766 1-567, looked up)
chain: MEIYHQYIKLRKQFGRFPKFGDEGSEMLADIRPNEDHGKEYIPRNPVTTVTQCVPEMSEHEANTNAVILVNKAMSHVEGGWPKDVDYTEAEHTIRYRKKVEKDEDYIRTVVQLGSSVEDLIKQNNAVDIYQEYFTNVTMDHTSEAPHVKTVTVFKDPNNIKRSASYVNWHPDGSVPKVVVAYSILQFQQQPAGMPLSSYIWDVNNPNTPEYEMVPTSQICCAKFNLKDNNLVGAGQYNGQLAYFDVRKGNGPVEATPIDISHRDPIYDFAWLQSKTGTECMTVSTDGNVLWWDLRKMNECVENMPLKEKNSETTVGGVCLEYDTNAGPTNFMVGTEQGQIFSCNRKAKNPVDRVKYVLSGHHGPIYGLRRNPFNSKYFLSIGDWTARVWVEDTAVKTPILTTKYHPTYLTGGTWSPSRPGVFFTIKMDGAMDVWDLYYKHNEPTLTVQVSDLALTAFAVQESGGTVAVGTSDGCTSVLQLSTGLSEASPAEKANINAMFERETTREKNLEKAIKEAKVKARKEQGRRDEVKDNVTEEQLKALEDEFFKTTDPAVGGGYGAGEGAAAE

Columns and labels:
[1] = biological target: B2; assay: pull-down
[2] = biological target: T1, Outer arm dynein intermediate chain 1 with N-terminal 6xHis (His-IC1) (Chlamydomonas reinhardtii, UniProt Q39578 1-683); assay: co-IP
T1 sequence (looked up): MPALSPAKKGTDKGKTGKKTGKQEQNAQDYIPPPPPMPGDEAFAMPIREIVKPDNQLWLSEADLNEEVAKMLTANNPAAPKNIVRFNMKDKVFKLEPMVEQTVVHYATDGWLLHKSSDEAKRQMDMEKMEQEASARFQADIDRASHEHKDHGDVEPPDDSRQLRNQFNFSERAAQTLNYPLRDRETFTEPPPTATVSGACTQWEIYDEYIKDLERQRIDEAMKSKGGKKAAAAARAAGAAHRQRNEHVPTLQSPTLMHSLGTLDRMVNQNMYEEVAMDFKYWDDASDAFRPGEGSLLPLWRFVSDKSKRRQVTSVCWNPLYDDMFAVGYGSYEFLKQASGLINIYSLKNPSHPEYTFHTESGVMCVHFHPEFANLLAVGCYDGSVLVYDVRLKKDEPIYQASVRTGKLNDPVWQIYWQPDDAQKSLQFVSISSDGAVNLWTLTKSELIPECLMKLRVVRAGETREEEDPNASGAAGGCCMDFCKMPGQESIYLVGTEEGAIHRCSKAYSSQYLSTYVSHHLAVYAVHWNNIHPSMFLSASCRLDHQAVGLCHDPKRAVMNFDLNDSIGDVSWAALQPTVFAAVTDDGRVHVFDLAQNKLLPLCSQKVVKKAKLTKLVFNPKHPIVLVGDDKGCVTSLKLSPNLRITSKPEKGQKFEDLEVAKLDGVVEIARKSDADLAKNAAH

[3] = biological target: T2, Outer dynein arm docking complex subunit DC2 with C-terminal 6xHis (DC2-6xHis) (Chlamydomonas reinhardtii, UniProt A8JF70 1-552); assay: pull-down
T2 sequence (looked up): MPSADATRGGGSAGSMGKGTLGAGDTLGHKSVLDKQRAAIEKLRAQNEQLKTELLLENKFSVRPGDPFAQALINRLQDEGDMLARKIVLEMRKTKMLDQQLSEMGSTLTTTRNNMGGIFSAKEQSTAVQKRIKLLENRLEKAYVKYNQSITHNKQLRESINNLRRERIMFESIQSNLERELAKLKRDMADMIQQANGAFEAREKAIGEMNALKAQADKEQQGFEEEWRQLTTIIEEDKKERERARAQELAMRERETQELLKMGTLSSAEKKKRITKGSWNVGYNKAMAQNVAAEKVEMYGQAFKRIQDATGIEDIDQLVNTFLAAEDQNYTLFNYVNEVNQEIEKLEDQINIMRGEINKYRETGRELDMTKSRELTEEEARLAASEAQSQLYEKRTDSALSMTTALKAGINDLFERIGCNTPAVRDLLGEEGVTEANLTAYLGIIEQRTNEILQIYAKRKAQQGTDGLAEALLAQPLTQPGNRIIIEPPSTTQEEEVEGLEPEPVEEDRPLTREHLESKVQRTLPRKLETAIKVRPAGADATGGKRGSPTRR

stoichiometry N [1]: 1 IC1:IC2
B1: Outer arm dynein intermediate chain 1 (IC1), not tagged (natural protein, Chlamydomonas reinhardtii, UniProt Q39578 1-683, looked up)
chain: MPALSPAKKGTDKGKTGKKTGKQEQNAQDYIPPPPPMPGDEAFAMPIREIVKPDNQLWLSEADLNEEVAKMLTANNPAAPKNIVRFNMKDKVFKLEPMVEQTVVHYATDGWLLHKSSDEAKRQMDMEKMEQEASARFQADIDRASHEHKDHGDVEPPDDSRQLRNQFNFSERAAQTLNYPLRDRETFTEPPPTATVSGACTQWEIYDEYIKDLERQRIDEAMKSKGGKKAAAAARAAGAAHRQRNEHVPTLQSPTLMHSLGTLDRMVNQNMYEEVAMDFKYWDDASDAFRPGEGSLLPLWRFVSDKSKRRQVTSVCWNPLYDDMFAVGYGSYEFLKQASGLINIYSLKNPSHPEYTFHTESGVMCVHFHPEFANLLAVGCYDGSVLVYDVRLKKDEPIYQASVRTGKLNDPVWQIYWQPDDAQKSLQFVSISSDGAVNLWTLTKSELIPECLMKLRVVRAGETREEEDPNASGAAGGCCMDFCKMPGQESIYLVGTEEGAIHRCSKAYSSQYLSTYVSHHLAVYAVHWNNIHPSMFLSASCRLDHQAVGLCHDPKRAVMNFDLNDSIGDVSWAALQPTVFAAVTDDGRVHVFDLAQNKLLPLCSQKVVKKAKLTKLVFNPKHPIVLVGDDKGCVTSLKLSPNLRITSKPEKGQKFEDLEVAKLDGVVEIARKSDADLAKNAAH

Binder: B2
binding result [2]: binds

stoichiometry N [3]: 1 DC1:DC2
B3: Outer dynein arm docking complex subunit DC1, not tagged (natural protein)
chain: not shown
